{"source": "FireProtDB (doi:10.1021/bi00485a005)", "parents": {"B1": {"name": "Guanyl-specific ribonuclease T1, P00651 (parent)", "chain": "MMYSKLLTLTTLLLPTALALPSLVERACDYTCGSNCYSSSDVSTAQAAGYQLHEDGETVGSNSYPHKYNNYEGFDFSVSSPYYEWPILSSGDVYSGGSPGADRVVFNENNQLAGVITHTGASGNNFVECT"}}}
{"variants_of": "B1", "settings": "Aspergillus oryzae (strain ATCC 42149 / RIB 40); pH 6.01; 25 °C; Urea; Fluorescence; MES 30 mM; NaCl 0.2 M; structure 1RN1; whole UniProt chain shown", "units": {"ddG of mutation (higher = less stable)": "kcal/mol", "denaturant m value": "kcal/mol/M", "denaturant midpoint (higher = more stable)": "M", "unfolding free energy": "kcal/mol"}}
{"variant": "E84A", "ddG of mutation (higher = less stable)": 0.64, "denaturant m value": 1.34, "denaturant midpoint (higher = more stable)": 5.67, "unfolding free energy": 7.6}
{"variants_of": "B1", "settings": "Aspergillus oryzae (strain ATCC 42149 / RIB 40); pH 8.01; 25 °C; Urea; Fluorescence; HEPPSO 30 mM; NaCl 0.2 mM; structure 1RN1; whole UniProt chain shown", "units": {"ddG of mutation (higher = less stable)": "kcal/mol", "denaturant m value": "kcal/mol/M", "denaturant midpoint (higher = more stable)": "M", "unfolding free energy": "kcal/mol"}}
{"variant": "E84A", "ddG of mutation (higher = less stable)": -0.71, "denaturant m value": 1.36, "denaturant midpoint (higher = more stable)": 4.89, "unfolding free energy": 6.63}
